Experimental data from article PMC10776578, “Epstein-Barr virus-driven B cell lymphoma mediated by a direct LMP1-TRAF6 complex” (Nature Communications, 2024).

What was measured:
[1] = test system: LMP1-CL 37 B cell lymphoma; assay: CRISPR/Cas9 knockout, cell survival (selection score) of lymphoma LMP1-CL 37; assay type: cell-based, mouse; set-up: key: Venus-neg d7 / mCherry+ d2, normalized to nontargeting gRNA (=1); details: for cell survival (selection score), Figure 6 b: CRISPR guides
Source text: (§1) The mouse LMP1 B cell tumors LMP1-CL 37 and 40 were derived from two B cell tumors arising in Rag2^KO;cγ^KO mice inoculated with primary tumor cells from Rag2^KO;cγ^KO mice reconstituted with fetal liver hematopoietic stem cells and progenitor cells from CD19-cre;R26-LMP1^STOPfl;CD3ε^KO animals as described. In these cells, a Venus expression cassette was targeted into the Rosa26 locus by CRISPR/CAS9 as described. Venus-LMP1 B cells were electroporated (Nucleofector, Lonza, human B cell program) with 1 µg of each of two pX330-mcherry-CAS9 vectors[83] encoding varying guide RNAs. In each approach, the first guide RNA (gRNA) targeted Venus while the second gRNA targeted either a nontargeting control sequence not present in the genome, or the gene of interest (GOI). The following gRNA sequences were used: nontargeting (NT) […], ICAM1 […], LMP1 #1 […], LMP1 #2 CCAAAACAGTAGCGCCAAG, LMP1 #3 AATCATCGGTAGCTTGTTG, TRAF6 #1 […], TRAF6 #2 […], TRAF6 #3 […]. The electroporation efficiency, measured as the frequency of mCherry-positive cells on day two after electroporation, was determined by flow cytometry with a Becton Dickinson LSRFortessa flow cytometer. On day seven, the loss of Venus was measured by flow cytometry as a surrogate marker for the number of surviving targeted cells. In the case of a lethal coexpressed GOI gRNA, Venus-negative cells will not survive, and their relative numbers are reduced. The given selection score is defined as the frequency of Venus-negative cells on day seven over the frequency of mCherry-positive cells on day two, normalized to the ratio observed with the nontargeting control gRNA. FACS data were analyzed by FlowJo software. The gating strategy is exemplified in Supplementary Fig. 5b. Animal housing and experiments to generate LMP1 lymphomas were approved by the Landesamt für Gesundheit und Soziales Berlin (G0049/15, G0374/13, and G0135/11). Mice were kept in groups in individually ventilated cages with a 12 h dark-light cycle at 22 ± 2 °C and 55 ± 5% relative humidity. They had access to food and water ad libitum, as well as to nest building material and shelter.

[2] = test system: LMP1-CL 40 B cell lymphoma; assay: CRISPR/Cas9 knockout, cell survival (selection score) of lymphoma LMP1-CL 40; assay type: cell-based, mouse; set-up: key: Venus-neg d7 / mCherry+ d2, normalized to nontargeting gRNA (=1); details: for cell survival (selection score), Figure 6 b: CRISPR guides
Source text: as §1

[3] = test system: HA-LMP1; assay: Coimmunoprecipitation of HA-LMP1 with Flag-TRAF6 mutants in HEK293 cells; assay type: cell-based, Epstein-Barr virus
Method: Immunoblotting was essentially performed as described. Proteins were detected on nitrocellulose membranes (Bio-Rad, #1620115) using the following primary antibodies: α−6*His-tag (clone 4A4 or 2F12, source: antibody facility of the Helmholtz Center Munich, hybridoma supernatants were used at a 1:10 dilution)[75], α-TRAF6 (H-274, Santa Cruz Biotech., #sc-7221, used at 1:1000), α-HA-tag (12CA5, Sigma-Aldrich, #11583816001, used at 0.4 µg per mL), α-IκBα (C-21, Santa Cruz Biotech., #sc-371, used at 1:500) and α-Tubulin (B-5-1-2, Santa Cruz Biotech., #sc-23948, used at 1:500). Horseradish peroxidase-coupled antibodies were used as secondary antibodies (Cell Signalling Technology, #7074 or #7076, respectively, both used at 1:5000). ECL signals were captured on X-ray films (Agfa Healthcare) and quantified by densitometry using the ImageJ software. Uncropped scans of immunoblots indicating molecular weights are provided in Supplementary Fig. 6.
HEK293 cells were transfected with 1 µg of pRK5-Flag TRAF6 plasmids, 1 µg of pCMV-HA-LMP1 and 6 µg of pRK5 per 10 cm cell culture dish using PolyFect Transfection Reagent (Qiagen, #301107) in RPMI without supplements. Cells were incubated with the plasmid transfection mix for 4 h before the medium was changed to RPMI full medium. After 24 h, the cells were lysed in NP40-lysis buffer (50 mM HEPES pH 7.5, 150 mM NaCl, 5 mM EDTA, 0.5 mM sodium orthovanadate, 0.5 mM PMSF, 0.5 mM sodium molybdate, and cOmplete protease inhibitor cocktail). Lysates were cleared by centrifugation at 15000 x g for 10 min at 4 °C, and the protein concentration was adjusted to 1 mg per mL. For immunoprecipitation 4 mL of lysate was incubated with the α-Flag antibody 6F7 (Sigma-Aldrich, #F3165; covalently coupled to protein-G-Sepharose) for 1 h at 4 °C. The beads were pelleted at 15000 x g for 30 seconds at 4 °C, washed twice with NP40-lysis buffer, and analyzed by immunoblotting.

[4] = test system: HA-LMP1; assay: Confocal immunofluorescence colocalization of Flag-TRAF6 with HA-LMP1 in HeLa cells; assay type: cell-based, Epstein-Barr virus
Method: HeLa cells were seeded onto cover glasses (Thermo Scientific, Menzel) in 24-well plates one day before transfection. Cells were transfected at 50–60% confluency with 50 ng of pCMV-HA-LMP1 plasmids and 100 ng of pRK5-Flag-TRAF6 plasmids, adjusted to a total of 500 ng DNA per sample with pRK5 empty vector, using Lipofectamine 2000 (Thermo Fisher Scientific) according to the manufacturer’s instructions. At 24 h posttransfection, cells were washed once with PBS and fixed with 4% paraformaldehyde (Sigma-Aldrich) for 20 min at RT, followed by permeabilization with 0.3% (v/v) Triton X-100 and blocking with 5% (v/v) FBS in PBS for 1 h at RT. For immunostaining, the cells were incubated overnight with the primary antibodies α-HA (1:1000, clone 16B12, BioLegend) and α-DYKDDDDK (1:1000, clone L5, BioLegend) at 4 °C. The secondary antibodies goat α-mouse Alexa 488 (1:500, cross-adsorbed, Invitrogen, #A-11029) and goat α-rat Alexa 555 (1:500, cross-adsorbed, Invitrogen, #A-21434) were added for 1.5 h at RT. Microscope slides were sealed with cover glasses using Mowiol mounting medium (Sigma-Aldrich). Nuclei were stained with Hoechst 33258 (Sigma-Aldrich). All samples were imaged using a Leica TCS SP5 confocal microscope with 405 nm, 488 nm, 543 nm or 633 nm laser lines, scanning each channel separately under image capture conditions that eliminated channel overlap. For each single experiment, 10 transfected cells positive for both constructs were randomly captured as single-cell images for quantification. The resulting images were then analyzed using the Leica TCS SP5 colocalization analyses application (LAS AF Version 2.7.3.9723). Analysis was performed with default parameters.

[5] = test system: GST-CD40_216-277; assay: AlphaScreen PPI, TRAF6 mutants binding to CD40; set-up: species or system human; TRAF6 binding to CD40 (AlphaScreen), mean: unit not given here
Method: (§2) Fig. 2 LMP1 binds to the receptor-interacting surface of TRAF6. a Mutations within the receptor-interacting surface of TRAF6 affect binding to LMP1. The TRAF6 mutants R392A, K469A, F471A, and Y473A were tested LMP1 in AlphaScreen PPI experiments with GST-LMP1_181-386. Data are mean values ± SD of three independent experiments. Statistics: one-way ANOVA. b TRAF6 R392A differentiates between CD40 and LMP1/RANK. AlphaScreen PPI experiments with GST-CD40_216-277. Data are mean values ± SD of three independent experiments. […] AlphaScreen PPI experiments with GST-RANK314-355. Data are mean values ± SD of four independent experiments. Statistics: one-way ANOVA. d TRAF6 mutants that fail to interact with LMP1 in PPI assays are also unable to bind cellular LMP1. HEK293 cells were co-transfected with HA-LMP1 and the indicated Flag-TRAF6 mutants. Flag-TRAF6 was immunoprecipitated (IP) via its Flag-tag and coprecipitated HA-LMP1 was detected on immunoblots by an α-HA antibody. Uncropped blots in Supplementary Fig. 6b. For statistical analysis LMP1 signals were digitalized and quantified (graph). Data are mean values ± SD of three independent experiments. […] TRAF6 recruitment is dependent on amino acids 371 − 386 of LMP1 (small panel). Confocal microscopy images show representative cells of three independent experiments. Quantitative data are mean values ± SD of ten randomly selected cells per transfection of one representative experiment (graph). Scale bars: 10 µm. Statistics: one-way ANOVA. p-values: *p ≤ 0.05, **p ≤ 0.01, ***p ≤ 0.001, ****p ≤ 0.0001. Source data and exact p-values in the Source Data file.
(§3) AlphaScreen experiments were performed in 96- or 384-well plates (Perkin Elmer, OptiPlate). In both assay formats, His-TRAF and GST-LMP1, GST-CD40, or GST-RANK proteins were incubated together in 40 µL of PBS (protein concentrations were calculated to the final reaction volume of 60 µL) supplemented with 0.5% BSA (Sigma, #A7030) and 0.1% Tween-20 (AppliChem, #A4974), for 1 h at room temperature (RT). If not indicated otherwise, standard protein concentrations were 300 nM for His-TRAF proteins and 100 nM for GST-LMP1 proteins. Ni-NTA-acceptor (Perkin Elmer, #6760619 C) and GST-acceptor (Perkin Elmer, # 6765300) beads were added each to a final concentration of 1–4 µg per mL in a final reaction volume of 60 µL and incubated for 1 h at RT in the dark. AlphaScreen PPI signals were measured in a CLARIOstar reader (BMG Labtech GmbH).

[6] = test system: GST-LMP1_181-386; assay: AlphaScreen PPI, TRAF6 mutants binding to LMP1; set-up: species or system Epstein-Barr virus; TRAF6 binding to LMP1 (AlphaScreen), mean: unit not given here
Method: as §2, §3

Molecule: GTTTGAGCTGAGCGAGATCG (expressed or natural sequence) [ICAM1 gRNA]
- cell survival (selection score), Figure 6 b ([1]; replicate 1): 1.189
- cell survival (selection score), Figure 6 b ([1]; replicate 2): 1.169
- cell survival (selection score), Figure 6 b ([1]; replicate 3): 1.095
- cell survival (selection score), Figure 6 b ([1]; replicate 4): 0.9472
- cell survival (selection score), Figure 6 b ([1]; replicate 5): 1.162
- cell survival (selection score), Figure 6 b ([1]; replicate 6): 1.151
- cell survival (selection score), mean ([1]; mean (NT mean = 1), n = 9 LMP1, 10 TRAF6, 6 ICAM1): 1.119
- cell survival (selection score), Figure 6 b ([2]; replicate 1): 1.006
- cell survival (selection score), Figure 6 b ([2]; replicate 2): 1.221
- cell survival (selection score), Figure 6 b ([2]; replicate 3): 0.6632
- cell survival (selection score), Figure 6 b ([2]; replicate 4): 1.293
- cell survival (selection score), Figure 6 b ([2]; replicate 5): 1.126
- cell survival (selection score), mean ([2]; mean (NT mean = 1), n = 9 LMP1, 10 TRAF6, 5 ICAM1): 1.062

B1: K469A (protein, UniProt Q9Y4K3 1-522, looked up, variant K469A)
TNF receptor-associated …: MSLLNCENSCGSSQSESDCCVAMASSCSAVTKDDSVGGTASTGNLSSSFMEEIQGYDVEFDPPLESKYECPICLMALREAVQTPCGHRFCKACIIKSIRDAGHKCPVDNEILLENQLFPDNFAKREILSLMVKCPNEGCLHKMELRHLEDHQAHCEFALMDCPQCQRPFQKFHINIHILKDCPRRQVSCDNCAASMAFEDKEIHDQNCPLANVICEYCNTILIREQMPNHYDLDCPTAPIPCTFSTFGCHEKMQRNHLARHLQENTQSHMRMLAQAVHSLSVIPDSGYISEVRNFQETIHQLEGRLVRQDHQIRELTAKMETQSMYVSELKRTIRTLEDKVAEIEAQQCNGIYIWKIGNFGMHLKCQEEEKPVVIHSPGFYTGKPGYKLCMRLHLQLPTAQRCANYISLFVHTMQGEYDSHLPWPFQGTIRLTILDQSEAPVRQNHEEIMDAKPELLAFQRPTIPRNPAGFGYVTFMHLEALRQRTFIKDDTLLVRCEVSTRFDMGSLRREGFQPRSTDAGV
- coprecipitated HA-LMP1 signal (densitometry), mean ([3]; HEK293, mean of n = 3): 17563327
- interaction of TRAF6 mutants with LMP1 in HEK293 cells (in words) ([3]; coimmunoprecipitation): no negative effect on the interaction
- colocalization with HA-LMP1 (in words) ([4]; confocal microscopy): colocalized to a high extent with HA-LMP1 clusters
- colocalization of TRAF6 with LMP1, mean ([4]; mean of ten cells): 98.27
- effect of TRAF6 mutation on binding to CD40 (in words) ([5]; AlphaScreen PPI): did not affect the TRAF6 interaction with LMP1 or CD40
- TRAF6 binding to CD40 (AlphaScreen), mean ([5]; Figure 2b, mean of n = 3): 89.86
- TRAF6 binding to CD40 (AlphaScreen) ([5]; Figure 2b, relative to mean wt 100, replicate 1): 52.8
- TRAF6 binding to CD40 (AlphaScreen) ([5]; Figure 2b, replicate 2): 105.6
- TRAF6 binding to CD40 (AlphaScreen) ([5]; Figure 2b, replicate 3): 111.2
- effect of TRAF6 mutation on binding to LMP1 (in words) ([6]; AlphaScreen PPI): did not affect the TRAF6 interaction with LMP1 or CD40
- TRAF6 binding to LMP1 (AlphaScreen), mean ([6]; Figure 2a, mean of n = 3): 102.4
- TRAF6 binding to LMP1 (AlphaScreen) ([6]; Figure 2a, relative to mean wt 100, replicate 1): 73.0
- TRAF6 binding to LMP1 (AlphaScreen) ([6]; Figure 2a, replicate 2): 116.6
- TRAF6 binding to LMP1 (AlphaScreen) ([6]; Figure 2a, replicate 3): 117.5
